Assay results as given in publication PMC5012548.

B1: apMNK3R (ssDNA)
DNA: GTTGCTCGTATTTAGGGCGGGGGTGGGCGGATTTCGCAGGTGGCGTGTACACCAGTCTTCATCCGC
B2: apMNK3F (ssDNA)
DNA: GCGGATGAAGACTGGTGTACACGCCACCTGCGAAATCCGCCCACCCCCGCCCTAAATACGAGCAAC
B3: apMNK1F (ssDNA)
DNA: GCGGATGAAGACTGGTGTACACGCCGAACCCATTGTTCCAGGCGACATGCCCTAAATACGAGCAAC
B4: apMNK4F (ssDNA)
DNA: GCGGATGAAGACTGGTGTACAACGGGCAGCCAGGTCTTCGTCGTGTGTGCCCTAAATACGAGCAAC
B5: apMNK4R (ssDNA)
DNA: GTTGCTCGTATTTAGGGCACACACGACGAAGACCTGGCTGCCCGTTGTACACCAGTCTTCATCCGC
B6: apMNK2F (ssDNA)
DNA: GCGGATGAAGACTGGTGTGGGGTGGGCGGGCGGGGGTGGGGGTGGTATGGCGCGTTGGCCCTAAATACGAGCAAC

How the values were obtained:
[1] = biological target: GST-MNK1b (human, UniProt Q9BUB5-3 1-347); test: ELONA
[2] = biological target: T1, His-MNK1b (rMNK1b) (UniProt Q9BUB5-3 1-347); test: ELONA
[3] = biological target: T1, His-MNK1b (rMNK1b); test: Ni-NTA pull-down with qPCR

| Binder | Kd [1] | binding result [2] | binding result [3] |
| --- | --- | --- | --- |
| B1 | 6.36 ± 1.72 nM |  |  |
| B2 |  | binds |  |
| B3 |  |  | binds |
| B4 |  | binds |  |
| B5 |  |  | binds |
| B6 | 1.79 ± 0.48 nM |  |  |
